The values below come from paper PMC8274477 (Frontiers in Cell and Developmental Biology, 2021).

B1: MAGEB1 (natural protein, human, UniProt P43366 1-347, looked up)
chain: MPRGQKSKLRAREKRRKAREETQGLKVAHATAAEKEECPSSSPVLGDTPTSSPAAGIPQKPQGAPPTTTAAAAVSCTESDEGAKCQGEENASFSQATTSTESSVKDPVAWEAGMLMHFILRKYKMREPIMKADMLKVVDEKYKDHFTEILNGASRRLELVFGLDLKEDNPSGHTYTLVSKLNLTNDGNLSNDWDFPRNGLLMPLLGVIFLKGNSATEEEIWKFMNVLGAYDGEEHLIYGEPRKFITQDLVQEKYLKYEQVPNSDPPRYQFLWGPRAYAETTKMKVLEFLAKMNGATPRDFPSHYEEALRDEEERAQVRSSVRARRRTTATTFRARSRAPFSRSSHPM
notes: MAGEB1; protein on the human proteome microarray; source: spotted on the HuProt human proteome microarray
B2: PDCD6 (natural protein, human, UniProt O75340 1-191, looked up)
chain: MAAYSYRPGPGAGPGPAAGAALPDQSFLWNVFQRVDKDRSGVISDTELQQALSNGTWTPFNPVTVRSIISMFDRENKAGVNFSEFTGVWKYITDWQNVFRTYDRDNSGMIDKNELKQALSGFGYRLSDQFHDILIRKFDRQGRGQIAFDDFIQGCIVLQRLTDIFRRYDTDQDGWIQVSYEQYLSMVFSIV
notes: PDCD6; protein on the human proteome microarray; source: spotted on the HuProt human proteome microarray
B3: NECAP2 (natural protein, human, UniProt Q9NVZ3 1-263, looked up)
chain: MEESGYESVLCVKPDVHVYRIPPRATNRGYRAAEWQLDQPSWSGRLRITAKGQMAYIKLEDRTSGELFAQAPVDQFPGTAVESVTDSSRYFVIRIEDGNGRRAFIGIGFGDRGDAFDFNVALQDHFKWVKQQCEFAKQAQNPDQGPKLDLGFKEGQTIKLNIANMKKKEGAAGNPRVRPASTGGLSLLPPPPGGKTSTLIPPPGEQLAVGGSLVQPAVAPSSGGAPVPWPQPNPATADIWGDFTKSTGSTSSQTQPGTGWVQF
notes: NECAP2; protein on the human proteome microarray; source: spotted on the HuProt human proteome microarray
B4: KLHDC9 (natural protein, human, UniProt Q8NEP7 1-349, looked up)
chain: MAVAVPPGRAAGSGWAWRPVARDALLARAFHSCTELRGRFYLVGGLLAGGAREPSSDTVVFDPARGQAVRLGARGSPPRSHHDAAPVDGRWLCVVGGWDGSRRLATVTALDTERGVWEAWTGTPGDCPPAGLSSHTCTRISDRELQVAGREGGIHTQRRYGSIYTLRLDPSARTYCYKQEGCHTASRSGHCAALLQTPGPHPGHQLLLFGGCNLAEPEVAGHWSHGKIKEEPPVAPHLMEQLARLVSSGQGSQKGPHGLRHHSCSVVGPFAVLFGGETLTRARDTICNDLYIYDTRTSPPLWFHFPCADRGMKRMGHRTCLWNDQLYLVGGFGEDGRTASPQVCILDFI
notes: KLHDC9; protein on the human proteome microarray; source: spotted on the HuProt human proteome microarray
B5: MIF (natural protein, human, UniProt P14174 1-115, looked up)
chain: MPMFIVNTNVPRASVPDGFLSELTQQLAQATGKPPQYIAVHVVPDQLMAFGGSSEPCALCSLHSIGKIGGAQNRSYSKLLCGLLAERLRISPDRVYINYYDMNAANVGWNNSTFA
notes: MIF; protein on the human proteome microarray; source: spotted on the HuProt human proteome microarray
B6: NAT6 (natural protein, human, UniProt Q93015 1-286, looked up)
chain: MELILSTSPAELTLDPACQPKLPLDSTCQPEMTFNPGPTELTLDPEHQPEETPAPSLAELTLEPVHRRPELLDACADLINDQWPRSRTSRLHSLGQSSDAFPLCLMLLSPHPTLEAAPVVVGHARLSRVLNQPQSLLVETVVVARALRGRGFGRRLMEGLEVFARARGFRKLHLTTHDQVHFYTHLGYQLGEPVQGLVFTSRRLPATLLNAFPTAPSPRPPRKAPNLTAQAAPRGPKGPPLPPPPPLPECLTISPPVPSGPPSKSLLETQYQNVRGRPIFWMEKDI
notes: NAT6; protein on the human proteome microarray; source: spotted on the HuProt human proteome microarray
B7: NABP1 (natural protein, human, UniProt Q96AH0 1-204, looked up)
chain: MNRVNDPLIFIRDIKPGLKNLNVVFIVLEIGRVTKTKDGHEVRSCKVADKTGSITISVWDEIGGLIQPGDIIRLTRGYASMWKGCLTLYTGRGGELQKIGEFCMVYSEVPNFSEPNPDYRGQQNKGAQSEQKNNSMNSNMGTGTFGPVGNGVHTGPESREHQFSHAGRSNGRGLINPQLQGTASNQTVMTTISNGRDPRRAFKR
notes: NABP1; protein on the human proteome microarray; source: spotted on the HuProt human proteome microarray
B8: OVOL2 (natural protein, human, UniProt Q9BRP0 1-275, looked up)
chain: MPKVFLVKRRSLGVSVRSWDELPDEKRADTYIPVGLGRLLHDPPEDCRSDGGSSSGSGSSSAGEPGGAESSSSPHAPESETPEPGDAEGPDGHLATKQRPVARSKIKFTTGTCSDSVVHSCDLCGKGFRLQRMLNRHLKCHNQVKRHLCTFCGKGFNDTFDLKRHVRTHTGIRPYKCNVCNKAFTQRCSLESHLKKIHGVQQQYAYKQRRDKLYVCEDCGYTGPTQEDLYLHVNSAHPGSSFLKKTSKKLAALLQGKLTSAHQENTSLSEEEERK
notes: OVOL2; protein on the human proteome microarray; source: spotted on the HuProt human proteome microarray
B9: NUDT16L1 (natural protein, human, UniProt Q9BRJ7 1-211, looked up)
chain: MSTAAVPELKQISRVEAMRLGPGWSHSCHAMLYAANPGQLFGRIPMRFSVLMQMRFDGLLGFPGGFVDRRFWSLEDGLNRVLGLGLGCLRLTEADYLSSHLTEGPHRVVAHLYARQLTLEQLHAVEISAVHSRDHGLEVLGLVRVPLYTQKDRVGGFPNFLSNAFVSTAKCQLLFALKVLNMMPEEKLVEALAAATEKQKKALEKLLPASS
notes: NUDT16L1; protein on the human proteome microarray; source: spotted on the HuProt human proteome microarray
B10: POP7 (natural protein, human, UniProt O75817 1-140, looked up)
chain: MAENREPRGAVEAELDPVEYTLRKRLPSRLPRRPNDIYVNMKTDFKAQLARCQKLLDGGARGQNACSEIYIHGLGLAINRAINIALQLQAGSFGSLQVAANTSTVELVDELEPETDTREPLTRIRNNSAIHIRVFRVTPK
notes: POP7; protein on the human proteome microarray; source: spotted on the HuProt human proteome microarray
B11: PYCR2 (natural protein, human, UniProt Q96C36 1-320, looked up)
chain: MSVGFIGAGQLAYALARGFTAAGILSAHKIIASSPEMNLPTVSALRKMGVNLTRSNKETVKHSDVLFLAVKPHIIPFILDEIGADVQARHIVVSCAAGVTISSVEKKLMAFQPAPKVIRCMTNTPVVVQEGATVYATGTHALVEDGQLLEQLMSSVGFCTEVEEDLIDAVTGLSGSGPAYAFMALDALADGGVKMGLPRRLAIQLGAQALLGAAKMLLDSEQHPCQLKDNVCSPGGATIHALHFLESGGFRSLLINAVEASCIRTRELQSMADQEKISPAALKKTLLDRVKLESPTVSTLTPSSPGKLLTRSLALGGKKD
notes: PYCR2; protein on the human proteome microarray; source: spotted on the HuProt human proteome microarray
B12: ODAM (natural protein, human, UniProt A1E959 16-279, looked up)
chain: APLIPQRLMSASNSNELLLNLNNGQLLPLQLQGPLNSWIPPFSGILQQQQQAQIPGLSQFSLSALDQFAGLLPNQIPLTGEASFAQGAQAGQVDPLQLQTPPQTQPGPSHVMPYVFSFKMPQEQGQMFQYYPVYMVLPWEQPQQTVPRSPQQTRQQQYEEQIPFYAQFGYIPQLAEPAISGGQQQLAFDPQLGTAPEIAVMSTGEEIPYLQKEAINFRHDSAGVFMPSTSPKPSTTNVFTSAVDQTITPELPEEKDKTDSLREP
notes: ODAM; protein on the human proteome microarray; source: spotted on the HuProt human proteome microarray
B13: MSI2 (natural protein)
chain: not shown
notes: MSI2; protein on the human proteome microarray; source: spotted on the HuProt human proteome microarray
B14: MPST (natural protein, human, UniProt P25325 1-297, looked up)
chain: MASPQLCRALVSAQWVAEALRAPRAGQPLQLLDASWYLPKLGRDARREFEERHIPGAAFFDIDQCSDRTSPYDHMLPGAEHFAEYAGRLGVGAATHVVIYDASDQGLYSAPRVWWMFRAFGHHAVSLLDGGLRHWLRQNLPLSSGKSQPAPAEFRAQLDPAFIKTYEDIKENLESRRFQVVDSRATGRFRGTEPEPRDGIEPGHIPGTVNIPFTDFLSQEGLEKSPEEIRHLFQEKKVDLSKPLVATCGSGVTACHVALGAYLCGKPDVPIYDGSWVEWYMRARPEDVISEGRGKTH
notes: MPST; protein on the human proteome microarray; source: spotted on the HuProt human proteome microarray
B15: PYCRL (natural protein, human, UniProt Q53H96 1-274, looked up)
chain: MAAAEPSPRRVGFVGAGRMAGAIAQGLIRAGKVEAQHILASAPTDRNLCHFQALGCRTTHSNQEVLQSCLLVIFATKPHVLPAVLAEVAPVVTTEHILVSVAAGVSLSTLEELLPPNTRVLRVLPNLPCVVQEGAIVMARGRHVGSSETKLLQHLLEACGRCEEVPEAYVDIHTGLSGSGVAFVCAFSEALAEGAVKMGMPSSLAHRIAAQTLLGTAKMLLHEGQHPAQLRSDVCTPGGTTIYGLHALEQGGLRAATMSAVEAATCRAKELSRK
notes: PYCRL; protein on the human proteome microarray; source: spotted on the HuProt human proteome microarray
B16: NTPCR (natural protein, human, UniProt Q9BSD7 1-190, looked up)
chain: MARHVFLTGPPGVGKTTLIHKASEVLKSSGVPVDGFYTEEVRQGGRRIGFDVVTLSGTRGPLSRVGLEPPPGKRECRVGQYVVDLTSFEQLALPVLRNADCSSGPGQRVCVIDEIGKMELFSQLFIQAVRQTLSTPGTIILGTIPVPKGKPLALVEEIRNRKDVKVFNVTKENRNHLLPDIVTCVQSSRK
notes: NTPCR; protein on the human proteome microarray; source: spotted on the HuProt human proteome microarray
B17: LOR (natural protein, human, UniProt P23490 1-312, looked up)
chain: MSYQKKQPTPQPPVDCVKTSGGGGGGGGSGGGGCGFFGGGGSGGGSSGSGCGYSGGGGYSGGGCGGGSSGGGGGGGIGGCGGGSGGSVKYSGGGGSSGGGSGCFSSGGGGSGCFSSGGGGSSGGGSGCFSSGGGGSSGGGSGCFSSGGGGFSGQAVQCQSYGGVSSGGSSGGGSGCFSSGGGGGSVCGYSGGGSGCGGGSSGGSGSGYVSSQQVTQTSCAPQPSYGGGSSGGGGSGGSGCFSSGGGGGSSGCGGGSSGIGSGCIISGGGSVCGGGSSGGGGGGSSVGGSGSGKGVPICHQTQQKQAPTWPSK
notes: LOR; protein on the human proteome microarray; source: spotted on the HuProt human proteome microarray
B18: NME2 (natural protein, human, UniProt P22392 1-152, looked up)
chain: MANLERTFIAIKPDGVQRGLVGEIIKRFEQKGFRLVAMKFLRASEEHLKQHYIDLKDRPFFPGLVKYMNSGPVVAMVWEGLNVVKTGRVMLGETNPADSKPGTIRGDFCIQVGRNIIHGSDSVKSAEKEISLWFKPEELVDYKSCAHDWVYE
notes: NME2; protein on the human proteome microarray; source: spotted on the HuProt human proteome microarray
B19: NUDT6 (natural protein, human, UniProt P53370 1-316, looked up)
chain: MRQPLSWGRWRAMLARTYGPGPSAGYRWASGAQGYVRNPPVGACDLQGELDRFGGISVRLARLDALDRLDAAAFQKGLQAAVQQWRSEGRTAVWLHIPILQSRFIAPAASLGFCFHHAESDSSTLTLWLREGPSRLPGYASHQVGVAGAVFDESTRKILVVQDRNKLKNMWKFPGGLSEPEEDIGDTAVREVFEETGIKSEFRSVLSIRQQHTNPGAFGKSDMYIICRLKPYSFTINFCQEECLRCEWMDLNDLAKTENTTPITSRVARLLLYGYREGFDKIDLTVEELPAVYTGLFYKLYHKELPENYKTMKGID
notes: NUDT6; protein on the human proteome microarray; source: spotted on the HuProt human proteome microarray

The target of the assay is T1, OTULIN (OTU deubiquitinase with linear linkage specificity, FAM105B), His-tagged, biotin-labelled (human, UniProt Q96BN8 1-352, biotin (label; sites not stated)).
T1 construct: OTULIN (FAM105B), cDNA in pET28a; also called HIS-OTULIN; source: E. coli BL21 (DE3), purified (His-tag Purification Resin), labelled with biotin; not shown: His6, N-terminal, kept
Nature of the assay: peptide or protein array; HuProt human proteome microarray; 5 ug/5 ml biotin-labelled LUBAC or OTULIN in solution, 1 h at room temperature; Cy5-streptavidin, scanned at 635 nm; BSA as negative control; hits: Z-score >= 3 and I_(Mean_Ratio) >= 1.4. Conditions: both partners purified.
For the molecule B1, the binding result is listed as “binds”.

For B2, the binding result is on record as “binds”.

B3: the binding result is reported as “binds”.

For B4, the binding result was “binds”.

With B5, the binding result is on record as “binds”.

Take B6: the binding result was “binds”.

Consider B7, for which the binding result is “binds”.

For B8, the binding result is recorded as “binds”.

Turning to B9, the binding result is recorded as “binds”.

Turning to B10, the binding result is “binds”.

As to B11, the binding result is “binds”.

Regarding B12, the binding result is recorded as “binds”.

On to B13, for which the binding result was “binds”.

Take B14: the binding result is reported as “binds”.

B15: the binding result is on record as “binds”.

On to B16, for which the binding result was “binds”.

In the case of B17, the binding result is reported as “binds”.

In the case of B18, the binding result is “binds”.

On to B19, for which the binding result is “binds”.
